From patent US20230398116A1, “Agent for reversing resistance to anticancer drugs” (Y'S AC CO., LTD., priority 2020, published 2023)

Legend:
[1] = target: T1, recombinant human IL-26/AK155 monomer, Cat #1375-IL/CF, R&D Systems (human, UniProt Q9NPH9 22-171); assay: ELISA, human IL-26 monomer coated at 0.5 µg/ml, antibody diluted 2-fold from 5 µg/ml, HRP anti-mouse kappa detection
T1 construct: also called recombinant human IL-26 monomer
T1 sequence (looked up): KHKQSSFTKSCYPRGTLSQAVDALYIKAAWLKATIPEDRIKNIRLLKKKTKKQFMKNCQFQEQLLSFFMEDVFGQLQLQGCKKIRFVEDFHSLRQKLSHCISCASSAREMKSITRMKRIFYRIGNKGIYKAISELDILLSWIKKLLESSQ
Description: The antigen binding of purified Ch69-10-IgG1, Hu69-10A-IgG1, and Hu69-10B-IgG1 was analyzed by ELISA. ELISA plates were coated overnight at 4° C. with the addition of 0.5 μg/ml human IL-26 (recombinant human IL-26/AK155 monomer, Cat #1375-IL/CF, R&D Systems, Minneapolis, MN) at 100 μl/well in 0.2 M sodium carbonate buffer (pH 9.4). Wells were washed with the wash buffer and blocked with the ELISA buffer. Subsequently, 100 μl/well of test antibody (mouse 69-10, Ch69-10-IgG1, Hu69-10A-IgG1, or Hu69-10B-IgG1) serially diluted 2-fold in RPMI medium starting at 5 μg/ml was added to measure a binding with IL-26. After incubation at room temperature for 1 hour and washing the plates with a wash buffer, a 1/2,000-diluted HRP-conjugated goat anti-human kappa chain polyclonal antibody (Bethyl Laboratories) (for Ch69-10-IgG1, Hu69-10A-IgG1 and Hu69-10B-IgG1) or a 1/2,000-diluted HRP-labeled goat anti-mouse kappa chain polyclonal antibody (Bethyl Laboratories) (for mouse 69-10) in ELISA buffer was added at 100 μl/well to detect bound antibodies. After incubation at room temperature for 30 min and washing with the wash buffer, 100 μl/well of ABTS substrate (Sigma Aldrich) was added to start color development and 100 μl/well of 2% oxalic acid was added to stop the color development. The absorbance was measured at 405 nm.

[2] = target: T2, mouse EphA3 on the surface of E0771 cells (mouse, UniProt P29319 21-983); assay: 2.5D fluorescence intensity plot of stained E0771 cells (FIG. 18)
T2 construct: whole, on cells; Endogenous receptor on E0771 cells; also called cell surface EphA3; EphA3 receptor
T2 sequence (looked up): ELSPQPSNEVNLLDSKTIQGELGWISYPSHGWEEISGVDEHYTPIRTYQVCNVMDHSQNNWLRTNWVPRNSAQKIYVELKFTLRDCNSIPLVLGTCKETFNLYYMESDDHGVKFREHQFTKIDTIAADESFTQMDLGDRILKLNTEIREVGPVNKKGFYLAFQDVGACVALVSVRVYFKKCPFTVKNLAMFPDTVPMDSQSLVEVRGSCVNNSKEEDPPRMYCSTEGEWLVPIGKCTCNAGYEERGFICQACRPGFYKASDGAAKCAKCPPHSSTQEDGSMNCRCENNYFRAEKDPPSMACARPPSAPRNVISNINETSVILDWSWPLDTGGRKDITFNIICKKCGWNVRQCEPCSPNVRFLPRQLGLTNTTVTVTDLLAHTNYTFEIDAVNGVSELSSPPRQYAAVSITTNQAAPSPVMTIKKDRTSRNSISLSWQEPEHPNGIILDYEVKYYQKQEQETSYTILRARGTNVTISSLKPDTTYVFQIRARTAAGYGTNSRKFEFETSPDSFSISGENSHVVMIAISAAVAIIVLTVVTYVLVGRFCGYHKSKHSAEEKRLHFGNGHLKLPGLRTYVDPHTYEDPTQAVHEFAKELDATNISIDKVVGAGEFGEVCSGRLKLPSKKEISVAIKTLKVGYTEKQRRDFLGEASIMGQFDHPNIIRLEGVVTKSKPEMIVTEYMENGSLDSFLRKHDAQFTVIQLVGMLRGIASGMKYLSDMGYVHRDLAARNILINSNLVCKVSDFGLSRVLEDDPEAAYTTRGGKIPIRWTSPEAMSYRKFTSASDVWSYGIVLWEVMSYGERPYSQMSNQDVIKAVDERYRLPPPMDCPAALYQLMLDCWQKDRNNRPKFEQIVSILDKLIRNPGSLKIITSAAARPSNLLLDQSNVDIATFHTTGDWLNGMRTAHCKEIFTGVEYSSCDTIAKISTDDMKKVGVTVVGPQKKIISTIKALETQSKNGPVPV
Description: 2.5D intensity plot of EphA3, IL-26, and DAPI signals represents the absolute signal intensity of each pixel. Merged views and individual channels were shown. […] These images show EphA3/IL-26 interaction in E0771 cells. 200×. A representative image of five independent experiments showing similar results is shown.
(§1) E0771 and HCC70 cells (1×10⁵) were cultured for 24 hours in RPMI1640 medium with 10% FCS on Lab-Tek chamber slides (Thermo Fisher Scientific). The cultured cells were stimulated with Alexa Fluor 488 labeled IL-26 (30 ng/ml) in the presence or absence of recombinant human and mouse EphA3-Ig for 1 hour. HCC70 cells were stimulated with IL-26 (30 ng/ml) in the presence or absence of gefitinib (40 μM), a signal inhibitor, and a neutralizing antibody for 24 hours. Subcutaneous tumor samples obtained from mice were fixed in 4% paraformaldehyde (Thermo Fisher Scientific) and embedded in OCT compound (Tissue-Tek (registered trademark), Sakura Finetek, Japan). Cells and slides were immunostained with each antibody and observed using a Zeiss inverted microscope and Axiovision 2.0 program (Carl Zeiss, Germany). The fluorescence intensity was quantified with Image-J software (NIH). The images were captured using a 100×400× objective.

[3] = target: T3, human EphA3 on the surface of HCC70 cells (human, UniProt P29320 21-983); assay: immunofluorescence colocalization on HCC70 cells (FIG. 21)
T3 construct: whole, on cells; Endogenous receptor on HCC70 cells; also called cell surface EphA3; EphA3 receptor
T3 sequence (looked up): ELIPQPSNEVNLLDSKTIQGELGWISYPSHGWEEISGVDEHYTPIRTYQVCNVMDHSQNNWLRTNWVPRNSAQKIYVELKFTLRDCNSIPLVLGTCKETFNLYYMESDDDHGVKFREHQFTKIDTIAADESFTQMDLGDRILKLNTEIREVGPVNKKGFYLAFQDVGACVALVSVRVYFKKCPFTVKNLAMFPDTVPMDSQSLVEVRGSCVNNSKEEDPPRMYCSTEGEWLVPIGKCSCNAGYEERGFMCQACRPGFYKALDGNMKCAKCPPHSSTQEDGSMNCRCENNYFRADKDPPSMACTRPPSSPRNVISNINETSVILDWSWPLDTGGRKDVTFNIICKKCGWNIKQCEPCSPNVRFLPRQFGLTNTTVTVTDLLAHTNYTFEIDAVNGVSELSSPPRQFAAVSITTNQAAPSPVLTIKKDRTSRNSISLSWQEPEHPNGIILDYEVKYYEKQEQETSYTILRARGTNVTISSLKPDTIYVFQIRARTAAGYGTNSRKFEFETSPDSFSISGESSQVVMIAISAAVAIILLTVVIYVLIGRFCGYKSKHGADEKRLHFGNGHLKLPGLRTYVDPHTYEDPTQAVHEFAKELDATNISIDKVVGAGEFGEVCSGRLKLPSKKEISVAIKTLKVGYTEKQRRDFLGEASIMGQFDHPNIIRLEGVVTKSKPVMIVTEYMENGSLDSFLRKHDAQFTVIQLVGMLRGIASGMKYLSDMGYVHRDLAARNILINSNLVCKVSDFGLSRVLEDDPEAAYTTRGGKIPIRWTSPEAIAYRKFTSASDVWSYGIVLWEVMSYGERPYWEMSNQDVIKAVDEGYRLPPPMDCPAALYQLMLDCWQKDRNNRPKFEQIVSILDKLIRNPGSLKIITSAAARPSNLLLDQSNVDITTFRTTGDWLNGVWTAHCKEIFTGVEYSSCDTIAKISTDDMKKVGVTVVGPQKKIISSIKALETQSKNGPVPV
Description: IL-26 merged with EphA3 on the cell surface. […] Original magnification 200×. Scale bar=20 μm. Representative images of three independent experiments with similar results are shown.
as §1

| EC50 [1] | binding result [2] | Binder | binding result [3] |
| --- | --- | --- | --- |
| 0.34 mg/L |  | mouse anti-human IL-26 monoclonal antibody clone 69-10 (antibody, V domains shown, Mouse antibody from a hybridoma; also called mouse 69-10; m69-10) VH: QVTLKESGPGILKPSQTLSLTCSFSGFSLSTSGMGVGWIRQPSGKGLEWLAHIWWDDDKYYNPSLKSQLTISKDTSRNQVFLKITSVDTADTATYYCVRGGITATHYYAMDYWGQGTSVTVSS VL: DIQMTQSPASQSASLGESVTISCLASQTIGTWLSWYQQKPGKSPQLLIYAATSLADGVPSRFSGSGSGTKFSFKISSLQAEDFVSYYCQQLYSSPWTFGGGTKLEIK |  |
|  | binds | Recombinant human IL-26 dimer (R&D Systems) (ligand, UniProt Q9NPH9 22-171, looked up, Bought from R&D Systems and used for cell stimulation; For the immunofluorescence experiments it was labeled with Alexa Fluor 488 (rhIL-26-Alexa 488); also called exogenous IL-26; rhIL-26-Alexa 488) KHKQSSFTKSCYPRGTLSQAVDALYIKAAWLKATIPEDRIKNIRLLKKKTKKQFMKNCQFQEQLLSFFMEDVFGQLQLQGCKKIRFVEDFHSLRQKLSHCISCASSAREMKSITRMKRIFYRIGNKGIYKAISELDILLSWIKKLLESSQ | binds |
